Assay results reported in patent US20260250391A1 (NEW YORK UNIVERSITY, published 2026).
Substitutions are numbered along the chain they refer to.

T1: Endogenous human ICAM-2 on the surface of Primary Umbilical Vein Endothelial Cells (HUVEC) (human, UniProt P13598 25-275)
T1 construct: whole, on cells; also called cell surface ICAM-2; endogenous ICAM-2
T1 sequence (looked up): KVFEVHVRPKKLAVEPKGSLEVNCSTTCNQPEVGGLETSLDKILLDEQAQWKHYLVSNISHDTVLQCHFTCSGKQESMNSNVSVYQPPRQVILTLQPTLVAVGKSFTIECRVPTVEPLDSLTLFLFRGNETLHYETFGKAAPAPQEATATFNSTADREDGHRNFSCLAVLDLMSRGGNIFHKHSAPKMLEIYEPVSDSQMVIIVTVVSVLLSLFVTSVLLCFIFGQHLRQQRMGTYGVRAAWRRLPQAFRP

T2: Human ICAM-2 extracellular region (UniProt ID P13598; residues 25-223), C-terminally fused to His6 and … (human, UniProt P13598 25-223, biotinylated with BirA (Avi-tag) when used as selection antigen)
T2 construct: range 25-223; Expressed from EXPI293 cells; also called hICAM-2; not shown: C-terminal His6 and Avi-tags
T2 sequence (looked up): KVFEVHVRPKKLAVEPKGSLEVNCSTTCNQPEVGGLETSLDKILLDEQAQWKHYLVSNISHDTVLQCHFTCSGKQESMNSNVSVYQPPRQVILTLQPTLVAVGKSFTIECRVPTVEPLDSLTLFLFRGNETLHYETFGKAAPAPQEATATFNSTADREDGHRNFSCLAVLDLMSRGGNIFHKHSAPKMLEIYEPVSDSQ

T3: Pig ICAM-2 extracellular region (UniProt ID Q6VY03; residues 24-250), C-terminally fused to His6 and Avi-tags (pig, UniProt Q6VY03 24-250, Possibly biotinylated on the Avi-tag, as for human ICAM-2 in Example 1; this is not stated for pig. The tag is not included in the letters.)
T3 construct: also called pICAM-2
T3 sequence: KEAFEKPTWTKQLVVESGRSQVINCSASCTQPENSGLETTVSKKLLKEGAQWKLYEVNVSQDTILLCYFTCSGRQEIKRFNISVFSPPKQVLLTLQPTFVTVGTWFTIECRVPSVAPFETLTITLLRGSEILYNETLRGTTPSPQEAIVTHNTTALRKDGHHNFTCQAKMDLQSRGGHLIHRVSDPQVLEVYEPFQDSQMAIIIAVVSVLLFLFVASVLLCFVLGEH

B1: Negative control monobody (SEQ ID NO: 34) (designed binder)
chain: VSSVPTKLEVVAATPTSLLISWDASSSSVSYYRITYGETGGNSPVQEFTVPGSKSTATISGLKPGVDYTITVYASSSSSSSSSSSKPISINYRT
notes: Tested conjugated to streptavidin DyLight 650; The tags and biotinylation of this control are not described
B2: Mb_ICAM2_S40 (designed binder)
chain: VSSVPTKLEVVAATPTSLLISWDAPAVTVLYYFITYGETGGNSPVQEFAVPGSKSTATISGLKPGVDYTITVYALSSKWRYSPISINYRT
modifications: biotin on the Avi-tag (enzymatic biotinylation with BirA) in the BLI and flow cytometry assays
notes: Monobody (FN3 domain from human 10FN3); Purified form carries N-terminal His6 and Avi tags; not shown: N-terminal tags containing His6 and Avi-tag
B3: Mb_ICAM2_S36 (designed binder)
chain: B2 chain with G41H, N42G, P44A, V45Y, S76W, S77Y, W79G, R80I, Y81T
modifications: biotin on the Avi-tag (enzymatic biotinylation with BirA) in the BLI assay
notes: as for B2
B4: Mb_ICAM2_S32 (designed binder)
chain: B2 chain with L75I, S76N, S77Q, K78Y, R80K
modifications: biotin on the Avi-tag (enzymatic biotinylation with BirA) in the BLI assay
notes: as for B2
B5: Mb_pICAM2_L1 (designed binder)
chain: VSSVPTKLEVVAATPTSLLISWDAGYWSSVAYYRITYGETGGNSPVQEFTVPGSSSTATISGLKPGVDYTITVYAMTSGYSWYSPISINYRT
notes: Identified by yeast display
B6: Mb_pICAM2_L6 (designed binder)
chain: B5 chain with G53S, M76Q, G79M
notes: Identified by yeast display
B7: Mb_pICAM2_L11 (designed binder)
chain: B5 chain with G53S
notes: Identified by yeast display
B8: Mb_pICAM2_L22 (designed binder)
chain: B5 chain with S56Y, M76K, G79D
notes: Identified by yeast display
B9: Mb_pICAM2_L14 (designed binder)
chain: B5 chain with A31S, S56Y, M76Q, G79Y
notes: Identified by yeast display
B10: Mb_ICAM2_S38 (designed binder)
chain: VSSVPTKLEVVAATPTSLLISWDAPAVTVLYYFITYGETGPASYGAQEFAVPGSKSTATISGLKPGVDYTITVYAISNKWKYSPISINYRT
modifications: biotin on the Avi-tag (enzymatic biotinylation with BirA) in the BLI assay
notes: as for B2

Key:
[1] = biological target: T1, Endogenous human ICAM-2 on the surface …; assay: Flow cytometry (MFI) of negative control monobody bound to streptavidin DyLight 650 on HUVEC; concentration as monomer [panel B]
Description: Whether Mb_ICAM2_S40 detected endogenous ICAM-2 molecules expressed on the surface of human cells was tested. […] The expression of ICAM-2 in HUVEC but not in Expi293 was confirmed using a commercially available anti-hICAM-2 antibody (FIG. 2D).

[2] = biological target: T2, Human ICAM-2 extracellular region …; assay: BLI (Octet): biotinylated monobody on streptavidin tips, human ICAM-2 in solution; global 1:1 fit without the highest concentration
Description: (§1) The four monobody samples identified in Example 1 were produced as purified proteins with N-terminal tags containing His6 and Avi-tag, followed by enzymatic biotinylation using the BirA enzyme. The proteins were immobilized on streptavidin-coated biolayer interferometry (BLI) tips using an Octet instrument (Sartorius) and their interaction with human ICAM-2 was monitored with the instrument (FIG. 1).
FIG. 1 depicts BLI sensorgrams. The global fitting of the 1:1 binding model was performed on the data after excluding the highest concentration sensorgrams, because the association rates in the highest concentration data are too high for accurate fitting. The KD values from the global fitting are shown.

[3] = biological target: T3, Pig ICAM-2 extracellular region …; assay: BLI (Octet) of the monobody with pig ICAM-2
Excerpt: as §1
Biolayer interferometry (BLI) for five of the monobodies (Mb_pICAM2_L1, Mb_pICAM2_L6, Mb_pICAM2_L11, Mb_pICAM2_L14, and Mb_pICAM2_L22) was carried out using the procedures and equipment described above (FIG. 5).

Binder | Kd [2] | Kd [3] | other results
B1 | – | – | binding result [1]: no binding (tested: 200 nM)
B2 | – | – | apparent Kd (pooled screen) [2]: 14 nM
B3 | 4.5 nM | – | –
B4 | 5.9 nM | – | –
B5 | – | 19.3 nM | –
B6 | – | 14 nM | –
B7 | – | 12.1 nM | –
B8 | – | 16.8 nM | –
B9 | – | 11.8 nM | –
B10 | 26 nM | – | –
